According to the supplement of paper PMC9233669:
Variants at the floor of the assay were thinned out.

Experiments:
biotinyl-Phe-oxazolone = test: self-aminoacylation, catalytic enhancement (BFO) (fold over background); higher = more active; k-Seq, kA / k0A0; sequences stand for … in GGGAAUGGAUCCACAUCUACGAAUUC…UUCACUGCAGACUUGACGAAGCUG
In short: (§1)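 Mutagenized RNA pools (0.43 μM; 21-nt variable region) were treated with 2–1250 μM of each biotinyl-aminoacyl-oxazolone. Conditions were 50 μL HEPES/NaCl/KCl/MgCl2/CaCl2 buffer, 5% acetonitrile, pH 6.9–7.0, room temperature, 90 minutes. Catalytic enhancement, the median kA relative to the uncatalyzed rate, was derived from streptavidin capture, qPCR and Illumina sequencing.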

biotinyl-Ile-oxazolone = test: self-aminoacylation, catalytic enhancement (BIO) (fold over background); higher = more active; k-Seq, kA / k0A0; sequences stand for … in GGGAAUGGAUCCACAUCUACGAAUUC…UUCACUGCAGACUUGACGAAGCUG
In short: as §1

biotinyl-Met-oxazolone = test: self-aminoacylation, catalytic enhancement (BMO) (fold over background); higher = more active; k-Seq, kA / k0A0; sequences stand for … in GGGAAUGGAUCCACAUCUACGAAUUC…UUCACUGCAGACUUGACGAAGCUG
In short: as §1

biotinyl-Val-oxazolone = test: self-aminoacylation, catalytic enhancement (BVO) (fold over background); higher = more active; k-Seq, kA / k0A0; sequences stand for … in GGGAAUGGAUCCACAUCUACGAAUUC…UUCACUGCAGACUUGACGAAGCUG
In short: as §1

biotinyl-Leu-oxazolone = test: self-aminoacylation, catalytic enhancement (BLO) (fold over background); higher = more active; k-Seq, kA / k0A0; sequences stand for … in GGGAAUGGAUCCACAUCUACGAAUUC…UUCACUGCAGACUUGACGAAGCUG
In short: as §1

biotinyl-Trp-oxazolone = test: self-aminoacylation, catalytic enhancement (BWO) (fold over background); higher = more active; k-Seq, kA / k0A0; sequences stand for … in GGGAAUGGAUCCACAUCUACGAAUUC…UUCACUGCAGACUUGACGAAGCUG
In short: as §1

## AAGUUUGCUAAGAGUCGCAAU [Fam3.1 aminoacylation ribozyme variant]
biotinyl-Phe-oxazolone
  self-aminoacylation: 1.24
biotinyl-Ile-oxazolone
  self-aminoacylation: 1.42
biotinyl-Met-oxazolone
  self-aminoacylation: 0.797
biotinyl-Val-oxazolone
  self-aminoacylation: 1.01
biotinyl-Leu-oxazolone
  self-aminoacylation: 1.05
biotinyl-Trp-oxazolone
  self-aminoacylation: 1.74

## AAGUUUGCUAAGAGUCGCAUG [Fam3.1 aminoacylation ribozyme variant]
biotinyl-Phe-oxazolone
  self-aminoacylation: 1.82
biotinyl-Ile-oxazolone
  self-aminoacylation: 0.902
biotinyl-Met-oxazolone
  self-aminoacylation: 1.07
biotinyl-Val-oxazolone
  self-aminoacylation: 1.1
biotinyl-Leu-oxazolone
  self-aminoacylation: 1.03
biotinyl-Trp-oxazolone
  self-aminoacylation: 1.69

## AAGUUUGCUAAGAGUGGCAAG [Fam3.1 aminoacylation ribozyme variant]
biotinyl-Phe-oxazolone
  self-aminoacylation: 0.543
biotinyl-Ile-oxazolone
  self-aminoacylation: 0.861
biotinyl-Met-oxazolone
  self-aminoacylation: 0.955
biotinyl-Val-oxazolone
  self-aminoacylation: 1.11
biotinyl-Leu-oxazolone
  self-aminoacylation: 0.724
biotinyl-Trp-oxazolone
  self-aminoacylation: 0.872

## AAGUUUGCUAAGUGUCGCAAG [Fam3.1 aminoacylation ribozyme variant]
biotinyl-Phe-oxazolone
  self-aminoacylation: 1.9
biotinyl-Ile-oxazolone
  self-aminoacylation: 0.902
biotinyl-Met-oxazolone
  self-aminoacylation: 0.887
biotinyl-Val-oxazolone
  self-aminoacylation: 0.897
biotinyl-Leu-oxazolone
  self-aminoacylation: 0.786
biotinyl-Trp-oxazolone
  self-aminoacylation: 0.987

## AAGUUUGCUAAUAAACGCAAG [Fam3.1 aminoacylation ribozyme variant]
biotinyl-Phe-oxazolone
  self-aminoacylation: 1.12
biotinyl-Ile-oxazolone
  self-aminoacylation: 0.774
biotinyl-Met-oxazolone
  self-aminoacylation: 0.833
biotinyl-Val-oxazolone
  self-aminoacylation: 0.667
biotinyl-Leu-oxazolone
  self-aminoacylation: 0.687
biotinyl-Trp-oxazolone
  self-aminoacylation: 0.97

## AAGUUUGCUAAUAAUCGCAAC [Fam3.1 aminoacylation ribozyme variant]
biotinyl-Phe-oxazolone
  self-aminoacylation: 0.842
biotinyl-Ile-oxazolone
  self-aminoacylation: 0.8
biotinyl-Met-oxazolone
  self-aminoacylation: 1.06
biotinyl-Val-oxazolone
  self-aminoacylation: 0.975
biotinyl-Leu-oxazolone
  self-aminoacylation: 0.773
biotinyl-Trp-oxazolone
  self-aminoacylation: 1.18

## AAGUUUGCUAAUAAUGGCAAG [Fam3.1 aminoacylation ribozyme variant]
biotinyl-Phe-oxazolone
  self-aminoacylation: 0.786
biotinyl-Ile-oxazolone
  self-aminoacylation: 0.644
biotinyl-Met-oxazolone
  self-aminoacylation: 0.599
biotinyl-Val-oxazolone
  self-aminoacylation: 0.727
biotinyl-Leu-oxazolone
  self-aminoacylation: 0.479
biotinyl-Trp-oxazolone
  self-aminoacylation: 0.585

## AAGUUUGCUAAUACCCGCAAG [Fam3.1 aminoacylation ribozyme variant]
biotinyl-Phe-oxazolone
  self-aminoacylation: 0.631
biotinyl-Ile-oxazolone
  self-aminoacylation: 0.909
biotinyl-Met-oxazolone
  self-aminoacylation: 0.577
biotinyl-Val-oxazolone
  self-aminoacylation: 0.838
biotinyl-Leu-oxazolone
  self-aminoacylation: 0.783
biotinyl-Trp-oxazolone
  self-aminoacylation: 1.45

## AAGUUUGCUAAUAGACGCAUG [Fam3.1 aminoacylation ribozyme variant]
biotinyl-Phe-oxazolone
  self-aminoacylation: 0.785
biotinyl-Ile-oxazolone
  self-aminoacylation: 0.645
biotinyl-Met-oxazolone
  self-aminoacylation: 0.48
biotinyl-Val-oxazolone
  self-aminoacylation: 0.59
biotinyl-Leu-oxazolone
  self-aminoacylation: 0.553
biotinyl-Trp-oxazolone
  self-aminoacylation: 0.703

## AAGUUUGCUAAUAGCCGCAAA [Fam3.1 aminoacylation ribozyme variant]
biotinyl-Phe-oxazolone
  self-aminoacylation: 1.38
biotinyl-Ile-oxazolone
  self-aminoacylation: 1.92
biotinyl-Met-oxazolone
  self-aminoacylation: 1.86
biotinyl-Val-oxazolone
  self-aminoacylation: 1.58
biotinyl-Leu-oxazolone
  self-aminoacylation: 1.38
biotinyl-Trp-oxazolone
  self-aminoacylation: 1.3

## AAGUUUGCUAAUAGCCGCCAG [Fam3.1 aminoacylation ribozyme variant]
biotinyl-Phe-oxazolone
  self-aminoacylation: 0.63
biotinyl-Ile-oxazolone
  self-aminoacylation: 1.52
biotinyl-Met-oxazolone
  self-aminoacylation: 1.1
biotinyl-Val-oxazolone
  self-aminoacylation: 1.45
biotinyl-Leu-oxazolone
  self-aminoacylation: 1.03
biotinyl-Trp-oxazolone
  self-aminoacylation: 1.21

## AAGUUUGCUAAUAGGCGCAGG [Fam3.1 aminoacylation ribozyme variant]
biotinyl-Phe-oxazolone
  self-aminoacylation: 0.997
biotinyl-Ile-oxazolone
  self-aminoacylation: 0.831
biotinyl-Met-oxazolone
  self-aminoacylation: 0.67
biotinyl-Val-oxazolone
  self-aminoacylation: 0.965
biotinyl-Leu-oxazolone
  self-aminoacylation: 0.907
biotinyl-Trp-oxazolone
  self-aminoacylation: 1.18

## AAGUUUGCUAAUAGGCGUAAG [Fam3.1 aminoacylation ribozyme variant]
biotinyl-Phe-oxazolone
  self-aminoacylation: 0.828
biotinyl-Ile-oxazolone
  self-aminoacylation: 0.669
biotinyl-Met-oxazolone
  self-aminoacylation: 0.735
biotinyl-Val-oxazolone
  self-aminoacylation: 0.735
biotinyl-Leu-oxazolone
  self-aminoacylation: 0.66
biotinyl-Trp-oxazolone
  self-aminoacylation: 0.664

## AAGUUUGCUAAUAGUAACAAG [Fam3.1 aminoacylation ribozyme variant]
biotinyl-Phe-oxazolone
  self-aminoacylation: 1.58
biotinyl-Ile-oxazolone
  self-aminoacylation: 1.19
biotinyl-Met-oxazolone
  self-aminoacylation: 1.52
biotinyl-Val-oxazolone
  self-aminoacylation: 1.1
biotinyl-Leu-oxazolone
  self-aminoacylation: 1.12
biotinyl-Trp-oxazolone
  self-aminoacylation: 1.41

## AAGUUUGCUAAUAGUAGCAAC [Fam3.1 aminoacylation ribozyme variant]
biotinyl-Phe-oxazolone
  self-aminoacylation: 1.08
biotinyl-Ile-oxazolone
  self-aminoacylation: 1.09
biotinyl-Met-oxazolone
  self-aminoacylation: 0.942
biotinyl-Val-oxazolone
  self-aminoacylation: 1.15
biotinyl-Leu-oxazolone
  self-aminoacylation: 0.631
biotinyl-Trp-oxazolone
  self-aminoacylation: 0.859

## AAGUUUGCUAAUAGUAGCAAU [Fam3.1 aminoacylation ribozyme variant]
biotinyl-Phe-oxazolone
  self-aminoacylation: 1.15
biotinyl-Ile-oxazolone
  self-aminoacylation: 1.32
biotinyl-Met-oxazolone
  self-aminoacylation: 1.57
biotinyl-Val-oxazolone
  self-aminoacylation: 1.32
biotinyl-Leu-oxazolone
  self-aminoacylation: 1.11
biotinyl-Trp-oxazolone
  self-aminoacylation: 1.78

## AAGUUUGCUAAUAGUCAUAAG [Fam3.1 aminoacylation ribozyme variant]
biotinyl-Phe-oxazolone
  self-aminoacylation: 17.9
biotinyl-Ile-oxazolone
  self-aminoacylation: 1.44
biotinyl-Met-oxazolone
  self-aminoacylation: 1.27
biotinyl-Val-oxazolone
  self-aminoacylation: 1.25
biotinyl-Leu-oxazolone
  self-aminoacylation: 1.15
biotinyl-Trp-oxazolone
  self-aminoacylation: 5.59

## AAGUUUGCUAAUAGUCCCAAC [Fam3.1 aminoacylation ribozyme variant]
biotinyl-Phe-oxazolone
  self-aminoacylation: 1.04
biotinyl-Ile-oxazolone
  self-aminoacylation: 0.639
biotinyl-Met-oxazolone
  self-aminoacylation: 0.505
biotinyl-Val-oxazolone
  self-aminoacylation: 0.643
biotinyl-Leu-oxazolone
  self-aminoacylation: 0.585
biotinyl-Trp-oxazolone
  self-aminoacylation: 0.629

## AAGUUUGCUAAUAGUCCCAAU [Fam3.1 aminoacylation ribozyme variant]
biotinyl-Phe-oxazolone
  self-aminoacylation: 1.36
biotinyl-Ile-oxazolone
  self-aminoacylation: 1.3
biotinyl-Met-oxazolone
  self-aminoacylation: 0.987
biotinyl-Val-oxazolone
  self-aminoacylation: 0.912
biotinyl-Leu-oxazolone
  self-aminoacylation: 1
biotinyl-Trp-oxazolone
  self-aminoacylation: 1.28

## AAGUUUGCUAAUAGUCGAUAG [Fam3.1 aminoacylation ribozyme variant]
biotinyl-Phe-oxazolone
  self-aminoacylation: 1.42
biotinyl-Ile-oxazolone
  self-aminoacylation: 0.824
biotinyl-Met-oxazolone
  self-aminoacylation: 0.781
biotinyl-Val-oxazolone
  self-aminoacylation: 0.846
biotinyl-Leu-oxazolone
  self-aminoacylation: 0.805
biotinyl-Trp-oxazolone
  self-aminoacylation: 0.829

## AAGUUUGCUAAUAGUCGCAAC [Fam3.1 aminoacylation ribozyme variant]
biotinyl-Phe-oxazolone
  self-aminoacylation: 1.28
biotinyl-Ile-oxazolone
  self-aminoacylation: 0.972
biotinyl-Met-oxazolone
  self-aminoacylation: 0.904
biotinyl-Val-oxazolone
  self-aminoacylation: 0.935
biotinyl-Leu-oxazolone
  self-aminoacylation: 0.816
biotinyl-Trp-oxazolone
  self-aminoacylation: 1.06

## AAGUUUGCUAAUAGUCGCAGU [Fam3.1 aminoacylation ribozyme variant]
biotinyl-Phe-oxazolone
  self-aminoacylation: 8.27
biotinyl-Ile-oxazolone
  self-aminoacylation: 1.33
biotinyl-Met-oxazolone
  self-aminoacylation: 1.91
biotinyl-Val-oxazolone
  self-aminoacylation: 1.34
biotinyl-Leu-oxazolone
  self-aminoacylation: 1.66
biotinyl-Trp-oxazolone
  self-aminoacylation: 3.14
